The record followed here is article PMC3965691.

The target of the test is GST-Pin1 (human Pin1, full length, fused to GST) (human) (UniProt Q13526). The experiment in a line: pull-down.
Sequence of GST-Pin1 (human Pin1, full length, fused to GST) (human) (Q13526 whole entry, the tested form may be a part): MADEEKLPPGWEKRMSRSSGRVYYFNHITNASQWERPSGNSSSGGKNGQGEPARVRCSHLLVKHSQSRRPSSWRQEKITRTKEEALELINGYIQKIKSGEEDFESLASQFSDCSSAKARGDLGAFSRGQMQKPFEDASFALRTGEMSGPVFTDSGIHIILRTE

“His6-XI-2 (Xenopus phosphatase inhibitor-2) (natural protein)”: the K0.5 is 0.3 µM.

As to “His6-DI-2 (Drosophila phosphatase inhibitor-2) (natural protein)”, the K0.5 came to 0.3 µM.
